B1: Pistol ribozyme (parent)
chain: GGGUCGUUGUUCCAUAAUCGCGUGGAUAUGGCACGCAAGUUUCUACCGGGCACCGUAAAUGUCCGACUGGAGCCGUUCGGGCGGCUAUAAACAGACCUCAGGCCCGAAGCGUGGCGGCACCUGCCGCCGGUGGUAAAAAAGAUCGGAAGAGCACACGUCU

Variants of B1 are the subject of this data set. The data set is described as follows: aptazyme ON/OFF ratio, guanine; higher = stronger switching; co-transcriptional cleavage with and without guanine.
Consider U7A U8A G9C U10C C12A, for which the “aptazyme ON/OFF ratio” value stood at 1.03.

U7A U8A G9C U10C C12G: the “aptazyme ON/OFF ratio” value was found to be 1.04.

As to U7A U8A G9C U10C C12U, the “aptazyme ON/OFF ratio” value was 1.07.

Consider U7A U8A G9U U10A U11C C12A, for which the “aptazyme ON/OFF ratio” value was found to be 1.22.

U7A U8A G9U U10A U11C C12G: the “aptazyme ON/OFF ratio” value worked out at 1.18.

Regarding U7A U8A G9C U10G U11C C12U, the “aptazyme ON/OFF ratio” value worked out at 1.13.

With U7A U8A G9C U10G U11C C12G, the “aptazyme ON/OFF ratio” value stood at 1.27.

Turning to U7A U8A G9C U10G U11C C12A, the “aptazyme ON/OFF ratio” value came to 1.81.

With U7A U8A G9C U10G U11A C12G C13A, the “aptazyme ON/OFF ratio” value is 1.26.

In the case of U7A U8A G9C U10G U11A C12G C13G, the “aptazyme ON/OFF ratio” value was 1.21.

As to U7A U8A G9C U10G U11A C12G C13U, the “aptazyme ON/OFF ratio” value amounted to 1.13.

Regarding U7A U8A G9C U10A U11C, the “aptazyme ON/OFF ratio” value was determined as 1.04.

With U7A U8A G9C U10A U11A, the “aptazyme ON/OFF ratio” value amounted to 1.21.

Consider U7A U8A G9C U10A U11G, for which the “aptazyme ON/OFF ratio” value is 1.24.

On to U7A U8A G9C U11C C12U C13G, for which the “aptazyme ON/OFF ratio” value turned out to be 1.11.

On to U7A U8A G9C U11C C12U C13A, for which the “aptazyme ON/OFF ratio” value was 1.13.

U7A U8A G9C U11C C12U C13U: the “aptazyme ON/OFF ratio” value was 1.08.

Consider U7A U8A G9C U10G U11A C13A, for which the “aptazyme ON/OFF ratio” value was found to be 1.04.

For U7A U8A G9C U10G U11A C13U, the “aptazyme ON/OFF ratio” value is 1.04.

Take U7A U8A G9C U10G U11A C13G: the “aptazyme ON/OFF ratio” value was determined as 1.09.

With U7A U8A G9C U10C U11A C13A, the “aptazyme ON/OFF ratio” value amounted to 1.14.

In the case of U7A U8A G9C U10C U11A C13U, the “aptazyme ON/OFF ratio” value turned out to be 1.13.

For U7A U8A G9C U10C U11A C13G, the “aptazyme ON/OFF ratio” value is 1.19.

As to U7A U8A G9C U10C U11C C12G C13U, the “aptazyme ON/OFF ratio” value came to 1.03.

In the case of U7A U8A G9C U10C U11C C12G C13G, the “aptazyme ON/OFF ratio” value was found to be 1.04.

Turning to U7A U8A G9C U10C U11C C12G C13A, the “aptazyme ON/OFF ratio” value is 1.02.

For U7A U8A G9C U10C C12A C13G, the “aptazyme ON/OFF ratio” value was determined as 1.04.

On to U7A U8A G9C U10C C12A C13U, for which the “aptazyme ON/OFF ratio” value amounted to 1.04.

As to U7A U8A G9C U10C C12A C13A, the “aptazyme ON/OFF ratio” value turned out to be 1.04.

As to U7A U8A G9C U10G C13G, the “aptazyme ON/OFF ratio” value amounted to 1.29.

In the case of U7A U8A G9C U10G C13U, the “aptazyme ON/OFF ratio” value worked out at 1.56.

Consider U7A U8A G9C U10G C13A, for which the “aptazyme ON/OFF ratio” value worked out at 1.24.

With U7A U8A G9C U11G C13A, the “aptazyme ON/OFF ratio” value came out at 1.22.

Consider U7A U8A G9C U11G C13U, for which the “aptazyme ON/OFF ratio” value came out at 1.31.

As to U7A U8A G9C U11G C13G, the “aptazyme ON/OFF ratio” value amounted to 1.1.

Consider U7A U8A G9U C13G, for which the “aptazyme ON/OFF ratio” value is 1.05.

On to U7A U8A G9U C13U, for which the “aptazyme ON/OFF ratio” value worked out at 1.21.

In the case of U7A U8A G9U C13A, the “aptazyme ON/OFF ratio” value was determined as 1.16.

Consider U7A U8A G9C U10A U11A C12U, for which the “aptazyme ON/OFF ratio” value came out at 1.19.

For the variant U7A U8A G9C U10A U11A C12A, the “aptazyme ON/OFF ratio” value amounted to 1.13.

For U7A U8A G9C U10A U11A C12G, the “aptazyme ON/OFF ratio” value turned out to be 1.27.

As for U7A U8A G9C U10C C13A, the “aptazyme ON/OFF ratio” value stood at 1.04.

As for U7A U8A G9C U10C C13G, the “aptazyme ON/OFF ratio” value was 1.

Turning to U7A U8A G9C U10C C13U, the “aptazyme ON/OFF ratio” value is 1.12.

Consider U7A U8A G9C U10A U11G C12G C13U, for which the “aptazyme ON/OFF ratio” value is 1.14.

On to U7A U8A G9C U10A U11G C12G C13G, for which the “aptazyme ON/OFF ratio” value is 1.25.

Take U7A U8A G9C U10A U11G C12G C13A: the “aptazyme ON/OFF ratio” value worked out at 1.18.

Take U7A U8A G9C U10A U11C C13A: the “aptazyme ON/OFF ratio” value came out at 1.07.

As for U7A U8A G9C U10A U11C C13U, the “aptazyme ON/OFF ratio” value stood at 1.04.

In the case of U7A U8A G9C U10A U11C C13G, the “aptazyme ON/OFF ratio” value came to 1.05.

For the variant U7A U8A G9C U10A C12U C13G, the “aptazyme ON/OFF ratio” value was 1.1.

On to U7A U8A G9C U10A C12U C13A, for which the “aptazyme ON/OFF ratio” value amounted to 1.09.

U7A U8A G9C U10A C12U C13U: the “aptazyme ON/OFF ratio” value was found to be 1.04.

With U7A U8A G9C U10A U11C C12A C13G, the “aptazyme ON/OFF ratio” value is 1.12.

Turning to U7A U8A G9C U10A U11C C12A C13A, the “aptazyme ON/OFF ratio” value was 1.12.

In the case of U7A U8A G9C U10A U11C C12A C13U, the “aptazyme ON/OFF ratio” value is 1.2.

For the variant U7A U8A G9C U10C U11A C12G C13G, the “aptazyme ON/OFF ratio” value was found to be 1.06.

In the case of U7A U8A G9C U10C U11A C12G C13A, the “aptazyme ON/OFF ratio” value amounted to 1.05.

On to U7A U8A G9C U10C U11A C12G C13U, for which the “aptazyme ON/OFF ratio” value was 1.1.

Regarding U7A U8A G9U U10A U11C C12A C13G, the “aptazyme ON/OFF ratio” value is 1.08.

For U7A U8A G9U U10A U11C C12A C13A, the “aptazyme ON/OFF ratio” value came to 1.11.

For the variant U7A U8A G9U U10A U11C C12A C13U, the “aptazyme ON/OFF ratio” value stood at 1.14.

As to U7A U8A G9C U10C U11G C12A C13U, the “aptazyme ON/OFF ratio” value was 1.03.

With U7A U8A G9C U10C U11G C12A C13G, the “aptazyme ON/OFF ratio” value was determined as 1.03.

For the variant U7A U8A G9C U10C U11G C12A C13A, the “aptazyme ON/OFF ratio” value was 0.981.

Consider U7A U8A G9C U10G U11C C12G C13A, for which the “aptazyme ON/OFF ratio” value was 1.36.

With U7A U8A G9C U10G U11C C12G C13G, the “aptazyme ON/OFF ratio” value came to 1.39.

In the case of U7A U8A G9C U10G U11C C12G C13U, the “aptazyme ON/OFF ratio” value is 1.22.

Regarding U7A U8A G9U U10A U11A C12U C13A, the “aptazyme ON/OFF ratio” value was determined as 1.2.

On to U7A U8A G9U U10A U11A C12U C13U, for which the “aptazyme ON/OFF ratio” value was found to be 1.22.

Take U7A U8A G9U U10A U11A C12U C13G: the “aptazyme ON/OFF ratio” value was determined as 1.22.

Take U7A U8A G9U U10A C12A: the “aptazyme ON/OFF ratio” value was 1.27.

As to U7A U8A G9U U10A C12G, the “aptazyme ON/OFF ratio” value worked out at 1.41.

For U7A U8A G9U U10A C12U, the “aptazyme ON/OFF ratio” value was determined as 1.16.

For the variant U7A U8A G9A U11C C12U, the “aptazyme ON/OFF ratio” value came to 1.06.

Take U7A U8A G9C U10C: the “aptazyme ON/OFF ratio” value turned out to be 1.8.

For the variant U7A U8A G9C U10A, the “aptazyme ON/OFF ratio” value was found to be 1.27.

On to U7A U8A G9C U10G, for which the “aptazyme ON/OFF ratio” value was 2.69.

Take U7A U8A G9C C12G C13A: the “aptazyme ON/OFF ratio” value came out at 1.19.

Turning to U7A U8A G9C C12G C13G, the “aptazyme ON/OFF ratio” value turned out to be 1.17.

For the variant U7A U8A G9C C12G C13U, the “aptazyme ON/OFF ratio” value was found to be 1.18.

Take U7A U8A G9C U10C C12G C13G: the “aptazyme ON/OFF ratio” value stood at 1.05.

As for U7A U8A G9C U10C C12G C13A, the “aptazyme ON/OFF ratio” value worked out at 0.99.
